In article PMC11245854:

Experiments:
[1] = biological target: human C1, P02745;P02746;P02747; experiment: HS-AFM; conditions: CL domain anchored onto a Ni2+-coated mica surface using the C-terminal hexahistidine tag; count in 10 different scanning areas; parent: est. 150; read off a plot
[2] = biological target: human C1q, P02745;P02746;P02747; experiment: HS-AFM; conditions: CL domain anchored onto a Ni2+-coated mica surface using the C-terminal hexahistidine tag; count in 10 different scanning areas; parent: est. 88; read off a plot

Row | response [1] [molecules] | response [2] [molecules] | Substance
1 | 160 | 83 | human Cκ domain (from UniProt P01834) K206A
2 | 55 | 19 | human Cκ domain (from UniProt P01834) E194A
